Measurements: patent publication US20230250191A1 (SHANGHAI JEMINCARE PHARMACEUTICAL, published 2023)
Where a chain is given by its changes, count along the chain named.

B1: AB1904Am2 (antibody, V domains shown)
VH: EVQLVESGGGLVQPGGSLRLSCAVSGYSIRSGYSWNWVRQAPGKGLEWVSVITYAGSTNYADSVKGRFTISRDDSKNTFYLQMNSLRAEDTAVYYCARGSHYFGHWHFAVWGQGTLVTVSS
VL: DIQLTQSPSSLSASVGDRVTITCRASQSVADEWDSYMNWYQQKPGKAPKLLIYAASYLQSGVPSRFSGSGSGTDFTLTISSLQPEDFATYYCQQSHEDPYTFGQGTKLEIK
notes: IgG1 format
B2: AB1904Am11 (antibody, V domains shown)
VH: B1 VH with R30T, S100T
VL: B1 VL with A30N, W33A
notes: IgG1 format
B3: AB1904Am3 (antibody, V domains shown)
VH: B1 VH with R30T, S100T
VL: B1 VL with A30D, D31A, W33G
notes: IgG1 format
B4: AB1904Am5 (antibody, V domains shown)
VH: B1 VH with R30T
VL: B1 VL with A30D, W33Y
notes: IgG1 format
B5: AB1904Am6 (antibody, V domains shown)
VH: B1 VH with R30T, H101N
VL: B1 VL with A30D, D31S, W33G
notes: IgG1 format
B6: AB1904Am10 (antibody)
VL: DIQLTQSPSSLSASVGDRVTITCRASQSVGDEADSYMNWYQQKPGKAPKLLIYAASYLQSGVPSRFSGSGSGTDFTLTISSLQPEDFATYYCQQSHEDPYTFGQGTKLEIKRTVAAPSVFIFPPSDEQLKSGTASVVCLLNNFYPREAKVQWKVDNALQSGNSQESVTEQDSKDSTYSLSSTLTLSKADYEKHKVYACEVTHQGLSSPVTKSFNRGEC
VH: not shown
notes: IgG1 format
B7: AB1904Am15 (antibody)
VL: B6 VL
VH: EVQLVESGGGLVQPGGSLRLSCAVSGYSITSGYSWNWVRQAPGKGLEWVSVITYAGSTNYADSVKGRFTISRDDSKNTFYLQMNSLRAEDTAVYYCARGTHYFGHWHFAVWGQGTLVTVSSASTKGPSVFPLAPSSKSTSGGTAALGCLVKDYFPEPVTVSWNSGALTSGVHTFPAVLQSSGLYSLSSVVTVPSSSLGTQTYICNVNHKPSNTKVDKKVEPKSCDKTHTCPPCPAPELLGGPSVFLFPPKPKDTLYITREPEVTCVVVDVSHEDPEVKFNWYVDGVEVHNAKTKPREEQYNSTYRVVSVLTVLHQDWLNGKEYKCKVSNKALPAPIEKTISKAKGQPREPQVYTLPPSREEMTKNQVSLTCLVKGFYPSDIAVEWESNGQPENNYKTTPPVLDSDGSFFLYSKLTVDKSRWQQGNVFSCSVMHEALHNHYTQKSLSLSPGK
notes: Same variable regions as AB1904Am10

target: T1, cynomolgus monkey IgE CH3-CH4 (cynomolgus monkey); experiment: BLI (Octet), method of Example 2, biotinylated cynomolgus IgE CH3-CH4
T1 construct: domain: CH3-CH4; Custom protein; also called Biotin -cyno IgE CH3-CH4; Biotin-cyno IgE
Protocol: Detection of samples on machine (Octet Data Acquisition 11.1.0.11): First, samples were added to a 96-well plate (Greiner bio-one, 655209) with 200 µL/well according to the following table. The software parameters were then set, the plate temperature was set at 30° C., and the frequency of standard kinetic signals was collected at 5.0 Hz. Next, the CH1 sensor (Fortébio, 18-0039) with 1xPBST was pre-wet for 10 minutes, and then tested on the machine. Each cycle includes the following steps: 1) immersing in buffer for 60 s; 2) detecting whether the antigen non-specifically binds to the sensor; 3) regenerating with glycine solution at 10 mM pH 1.7; 4) immersing in buffer for 60 s; 5) immobilizating the antibody on the sensor for 30 s; 6) immersing the sensor in the buffer for 180 s; 7) Association of the antigen- antibody for 180 s; 8) dissociation of the antigen-antibody for 10 min; 9) regenerating the sensor.

Row | Kd | koff | kon | Binder
1 | 110 pM | 0.000222 s⁻¹ | 2.06e+06 M⁻¹ s⁻¹ | B1
2 | 170 pM | 0.000248 s⁻¹ | 1.5e+06 M⁻¹ s⁻¹ | B2
3 | 160 pM | 0.000272 s⁻¹ | 1.7e+06 M⁻¹ s⁻¹ | B3
4 | 150 pM | 0.000267 s⁻¹ | 1.77e+06 M⁻¹ s⁻¹ | B4
5 | 180 pM | 0.000308 s⁻¹ | 1.74e+06 M⁻¹ s⁻¹ | B5

target: T2, human FcRn (human, UniProt P55899 24-297; P61769 21-119); experiment: BLI (Octet RED96e), pH 6.0, FcRn captured through biotin-conjugated anti-His antibody, antibody 31.3-1000 nM
T2 construct: Bought protein; also called hFcRn
Protocol: (§1) The affinity of the antibody to human FcRn (Acro, FCN-H52W7) and cynomolgus monkey FcRn (Acro, FCM-C52W9) was determined according to the method of Example 2 using Octet RED96e (Fortebio). Wherein, human FcRn and cynomolgus FcRn were diluted to 5 µg/mL with 1xPBS (10 mM Na2HPO4.12H2O, 2 mM KH2PO4, 137 mM NaCl, 2.7 mM KCl, pH 6.0), respectively, and biotin-conjugated THETM His-tagged mouse monoclonal antibody was diluted to 2 µg/mL; the antibody to be tested was diluted with 1x PBST (1xPBS, 0.02% Tween 20, pH6.0), and the antibody dilution concentration ranged from 1000 nM - 31.3 nM.

Row | Kd | koff | kon | Binder
6 | 98700 pM | 0.121 s⁻¹ | 1.22e+06 M⁻¹ s⁻¹ | B6
7 | 32800 pM | 0.0287 s⁻¹ | 875000 M⁻¹ s⁻¹ | B7

target: T3, cynomolgus monkey FcRn (cynomolgus monkey, UniProt Q8SPV9 24-297; Q8SPW0 21-119); experiment: as above
T3 construct: Bought protein; also called Cynomolgus FcRn; cynomolgus FcRn
T3 sequence (Q8SPV9 24-297 limits assumed, chain 1 of 2): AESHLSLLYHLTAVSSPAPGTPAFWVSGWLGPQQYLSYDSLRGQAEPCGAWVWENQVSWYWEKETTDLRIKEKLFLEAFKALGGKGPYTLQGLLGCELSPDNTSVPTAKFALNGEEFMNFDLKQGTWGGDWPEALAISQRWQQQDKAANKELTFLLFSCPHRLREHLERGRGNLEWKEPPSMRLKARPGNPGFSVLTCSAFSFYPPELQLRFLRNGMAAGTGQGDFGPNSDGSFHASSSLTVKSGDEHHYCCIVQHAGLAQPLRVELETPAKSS
T3 sequence (Q8SPW0 21-119 limits assumed, chain 2 of 2): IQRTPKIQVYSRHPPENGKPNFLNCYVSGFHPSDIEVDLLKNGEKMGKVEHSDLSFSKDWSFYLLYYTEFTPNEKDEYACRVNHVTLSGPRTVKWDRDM
Protocol: as §1

Row | Kd | koff | kon | Binder
8 | 91400 pM | 0.106 s⁻¹ | 1.16e+06 M⁻¹ s⁻¹ | B6
9 | 31500 pM | 0.0291 s⁻¹ | 922000 M⁻¹ s⁻¹ | B7
